{"source": "patent US8840891", "about": "(RSR, dated 2014)", "test_in_all_cases": "cell-based or functional assay", "key": {"[1]": {"biological_target": "human TSHR, wild type, expressed on CHO cells (human) (UniProt P16473)"}, "[2]": {"biological_target": "wild type human TSHR (human) (UniProt P16473)"}, "[3]": {"biological_target": "TSHR with Asp160 mutated to Lysine (human) (UniProt P16473)"}, "[4]": {"biological_target": "human TSHR (wild type) expressed in CHO cells (human) (UniProt P16473)"}, "[5]": {"biological_target": "human TSHR, wild type, expressed on CHO cells (human) (UniProt P16473)", "remark": "listed apart in the source"}}}
{"substance": "native human TSH (NIBSC reference preparation 81/565) (from UniProt P01215 25-116; P01222 21-132) (ligand)", "values": [{"measurement": "cyclic AMP; Exp 1; native human TSH 100 ng/mL only", "setting": "[1]", "value": 36.1, "unit": "pmol/mL"}, {"measurement": "cyclic AMP; Exp 2; native human TSH 100 ng/mL only", "setting": "[1]", "value": 40.8, "unit": "pmol/mL"}, {"measurement": "cyclic AMP; Exp 3; native human TSH 100 ng/mL only", "setting": "[1]", "value": 31.1, "unit": "pmol/mL"}]}
{"substance": "M22 (antibody)", "values": [{"measurement": "cyclic AMP; M22 3 ng/mL only (fmol/cell well)", "setting": "[2]", "value": 16800}, {"measurement": "cyclic AMP; M22 3 ng/mL only (repeat determination) (fmol/cell well)", "setting": "[2]", "value": 16700}, {"measurement": "Mutated/wild type (%); M22 only", "setting": "[3]", "value": 85, "unit": "%"}, {"measurement": "cyclic AMP; M22 3 ng/mL only (fmol/cell well)", "setting": "[3]", "value": 14300}, {"measurement": "cyclic AMP; M22 3 ng/mL only (repeat determination) (fmol/cell well)", "setting": "[3]", "value": 18900}]}
{"substance": "recombinant human TSH (NIBSC reference preparation 94/674) (from UniProt P01215 25-116; P01222 21-138) (ligand)", "values": [{"measurement": "cyclic AMP; Exp 1; recombinant human TSH 100 ng/mL only", "setting": "[1]", "value": 12.7, "unit": "pmol/mL"}, {"measurement": "cyclic AMP; Exp 2; recombinant human TSH 100 ng/mL only", "setting": "[1]", "value": 16.7, "unit": "pmol/mL"}, {"measurement": "cyclic AMP; Exp 3; recombinant human TSH 100 ng/mL only", "setting": "[1]", "value": 26.4, "unit": "pmol/mL"}]}
{"substance": "M22 Fab", "values": [{"measurement": "cyclic AMP production; M22 Fab 3 ng/mL only (fmol/cell well)", "setting": "[4]", "value": 9430}, {"measurement": "cyclic AMP; Exp 1; M22 3 ng/mL", "setting": "[5]", "value": 49.1, "unit": "pmol/mL"}, {"measurement": "cyclic AMP; Exp 2; M22 3 ng/mL", "setting": "[5]", "value": 68.3, "unit": "pmol/mL"}, {"measurement": "cyclic AMP; Exp 3; M22 0.3 ng/mL", "setting": "[5]", "value": 21.8, "unit": "pmol/mL"}, {"measurement": "cyclic AMP; Exp 4; M22 0.3 ng/mL", "setting": "[5]", "value": 31.1, "unit": "pmol/mL"}]}
{"substance": "5C9 F(ab′)2", "values": [{"measurement": "cyclic AMP; Example 1; 5C9 F(ab′)2 10 µg/mL + TSH (fmol/cell well)", "setting": "[4]", "value": 916}, {"measurement": "cyclic AMP; Example 1; 5C9 F(ab′)2 100 µg/mL + TSH (fmol/cell well)", "setting": "[4]", "value": 877}, {"measurement": "cyclic AMP; Example 1; 5C9 F(ab′)2 100 µg/mL only (fmol/cell well)", "setting": "[4]", "value": 204}, {"measurement": "cyclic AMP; Example 2; 5C9 F(ab′)2 10 µg/mL + TSH (fmol/cell well)", "setting": "[4]", "value": 1330}, {"measurement": "cyclic AMP; Example 2; 5C9 F(ab′)2 100 µg/mL + TSH (fmol/cell well)", "setting": "[4]", "value": 1060}, {"measurement": "cyclic AMP; Example 2; 5C9 F(ab′)2 100 µg/mL only (fmol/cell well)", "setting": "[4]", "value": 414}]}
